Assay results from the supplement of paper PMC9170038.

Test system: K4 kissing-loop RNA reporter
Assay: apparent KD of K4 kissing-loop reporter; higher = weaker reporter binding
Settings: Eterna round: R107
Description: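 RNA-MaP round R107: designed RNA switches with theophylline, tryptophan, arginine or FMN aptamers are transcribed on-chip within common flanks. They are titrated with a labelled K4 kissing-loop RNA reporter in RNA-MaP buffer (100 mM Tris pH 7.5, 80 mM KCl, 4 mM MgCl2), without ligand or with the indicated ligand. Median apparent KD per design.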

[1] = input ligand: theophylline 20 uM
[2] = input ligand: tryptophan 2.4 mM
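Note: bound reporter read as fluorescence of individual clusters on recovered sequencing chips by microscopy, with normalized cluster intensities fitted with a binding model.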

Row | Sequence | apparent KD of K4 kissing-loop reporter (input ligand: FMN 200 uM) [nM] | apparent KD of K4 kissing-loop reporter (input ligand: arginine 13.2 mM) [nM] | apparent KD of K4 kissing-loop reporter (input ligand: none) [nM] | apparent KD of K4 kissing-loop reporter [1] [nM] | apparent KD of K4 kissing-loop reporter [2] [nM]
1 | CGAGAGCUCUUGUUUGGAUGUGUUUUAUGGCGAGGACCGGUACGGCCGCCACUCGGGUGAUGUUAGUGAUGUUGAUGUAGUGAUG [qzxmullin] | 118 | 79.6 | 92.7 | 154 | 91.4
2 | GCGAUUCAGUGAUGUUGGAAAUACAGGGAUACCAGCCGAAAAUAAGGCCCUUGGCAGCUUAAUAGGAAAGAACUAAGAAAGACGC [Theophylline A Same State; Euphoria Solution 3] | 556 | 603 | 671 | 755 | 460
3 | UCGGGAGGCCGAAGGAGCGCCGCCAGUGAUGUUGGGAGUUAGAUACCAGUGAUGUUGGGCCGGCAGGUAGGUCGCGGCCGCGGAU [Exclusion Arginine B Gf 18] | 201 | 106 | 147 | 168 | 153
4 | GGCAGUGAUGUUGCCAGUGGCAGAUUAGAAGGAGCGUGGUGAGACACAGGUAGGUCGCUAAUUGAAAUUGCUGUCACUAAAAUGC [#6] | 292 | 282 | 300 | 368 | 212
5 | UUUGUAUCGGGAAGGAGCGUGAAUGAUAAUGAAUAUAGUGAUGUUAUAUAUAAGAACGAAUCACAGGUAGGUCGCCCGGAUGAGU [SSArgB.N] | 548 | 387 | 486 | 548 | 460
6 | UGUCGAGUGAUGUUCGAUGUGGUGCAUGCAGAGGAUAUAGGGUGGGCUAGAAGGCUGAAAAGUGCUUCGAGUGAUGUUCGAAGAU [Exclusion FMN A GF9] | 129 | 112 | 123 | 100 | 114
7 | GGGAGUAGUGCGGCCGCCACUGAGAAAGAAGAAGAAUAUAGUGAUGUUAUAUAGGAAAGGAAGAACAGGACCGGGCAUUAGAUUU [SSTRyptB.F] | 232 | 220 | 251 | 232 | 180
8 | AGAUUCGACACGGCCGCCACUUGUGGUGGAUUAUCCUAUGUCGAACAUGAGUGAUGUUCAUGUACAAGGACCGGGUGUUGAGUCU [KL-XTryp-B6 #analogue] | 476 | 373 | 421 | 438 | 492
9 | ACAUGUUCCAGUGAUGUUGGCGUACGUGAUACCAGACGAAUAAAAGUCCCUUGGCAGCACAAAUAAGCCAAGAUAGGUGAAUGAU [#04 K4 Theophylline A Exclusion] | 403 | 272 | 495 | 538 | 405
10 | ACAGGAUCGAAGAUCCUGAGCAGUCAGGUCCGAGGACCGGUACGGCCGCCACUCGGAGUGAUGUUCCGAAGACUGCAAAAUAAAA [#SwitchBubble 4] | 853 | 455 | 1110 | 968 | 338
11 | AAUGUACAAGUGAUGUUUGUACUUUCCGAAGGAGCGUCUAAUAAGACAGGUAGGUCGCGGAUUCUCUAAAUUAUCAGGUCAUUAA [JR_ExcArginiA_Sub018] | 91.8 | 85.4 | 94.3 | 85.6 | 87.4
12 | GGUAGCGCUAGAGAUACCAGUCAUAUCGCUCUGGAGUGAUGUUCCGGAACGUGCGGAGAAGACCCUUGGCAGCUCAUGACGGUGU [Exclusion Theophylline B GF 4] | 210 | 194 | 224 | 281 | 214
13 | GCAGUGAUGUUGCACGAGUAGGGUAGAGUACGAGGACCGGUACGGCCGCCACUCGUACGGAACUCGCUAAUUUAUGGAAUGGUGA [I] | 465 | 590 | 752 | 761 | 497
14 | GCAGCACCGAGUGAUGUUUGGUUCAGCGUGAAGGAUAUAAUAUCUGUUAGAAGGUCAAGUGAGAUUGUCGCGAAUCAGUUUUGAU [theeternabot_exclusion_KL_FMN_A_41] | 368 | 248 | 309 | 332 | 290
15 | UGAUACCAGACGGCCGCCACUCCCGUAAGUCAAAGACUUACGAAGAAGGUUUUUUAGUGAUGUUGGAGGACCGGGUCUGGUAUCU [FiskerMod 19 - Jieux - Exclusion - Tryptophan B] | 258 | 188 | 210 | 302 | 1100
16 | GGAUAGGACACAGGAUAUGGUAGUGAUGUUACCAAACUGGUUAAACAUGUCAGAAAACUGGCAUGACCAGAAGGGUGUCCUAUCG [FmnBX 27 C11+G75] | 83.4 | 63.8 | 66.2 | 71 | 63.8
17 | CCGGAGGAAGUCGCUUUUCCUGUGGCAUAGAAGGAUAUCCAAUUAAGGAGAAGGUCUAUCUGCCUUAGUGAUGUUAGGAAGUAGA [theeternabot_sameState_KL_FMN_A_23] | 172 | 89.1 | 135 | 162 | 167
18 | UGUGUUUACCUGACCCAGUGAUGUUGGGAAGGAGCGUGCGAAAGCACAGGUAGGUCGCUCAACCUAAAGUCAGGUGAGCACUAAA [#SwitchBubble 9 #K4Early] | 407 | 277 | 447 | 470 | 328
19 | AAACAUCACUGGGAGUGAUGUUCUCAGUGACGAGGACCGGUACGGCCGCCACUCGCGAGAGAACUAGUCUAGUCUUGACUGCAUU [Excl Tryptophan A V14] | 277 | 333 | 335 | 418 | 398
20 | CGCAGUGAUGUUGCUAUUAUUCUUGAUUAACGAGGACCGGUACGGCCGCCACUCGAUUUCUAUCUAAUUUAGUGUUAUGUUGAUU [JR_ExcTryptoA_Sub007] | 351 | 423 | 397 | 447 | 256
21 | CCAUCGCUAUUCGAUACCAGCUACUUAGUGAUGUUAAGUUUUUAUCCACUGUAGGUGGAAAGCCCUUGGCAGCGAAUAGUGAUGG [Theophylline B K4 26] | 442 | 357 | 474 | 234 | 417
22 | AGGCACGAGCAAGGAUAUUGAGUAGAGUGAUGUUCUGCCUAAGUUGGCUCGUAAGAGCCUUCUUAGCGAGAAGGUGCUCGUGCCU [#2 Same State - FMN A Attempt #27 (HarryS)] | 297 | 513 | 824 | 611 | 665

Row | Sequence | apparent KD of K4 kissing-loop reporter (input ligand: FMN 200 uM) [nM] | apparent KD of K4 kissing-loop reporter (input ligand: arginine 13.2 mM) [nM] | apparent KD of K4 kissing-loop reporter (input ligand: none) [nM] | apparent KD of K4 kissing-loop reporter [1] [nM] | apparent KD of K4 kissing-loop reporter [2] [nM]
23 | GGAUAGGACAGAGGAUAUCCAGUGAUGUUGGAGAAUUCUCCUUCAUCAUGUCACAAAAGUGGCAUGGGAGAAGGCUGUCCUAUCG [Mod of Eli's FmnBX 29 v3] | 146 | 579 | 576 | 899 | 578
24 | GUAUCGCUAGGAGGAUAUUUCAAUUUGACUCUUUGAGUUAAUACGGAGUGAUGUUCCGAUUUACGGAAAGAAGGCCUAGUGAUAC [FMN B 13] | 123 | 203 | 238 | 219 | 210
25 | GCCGUAGAUGGAAGGAGCGUGCGUGAAGUGAUGUUUCACGAAGAGUUUUCCACCUUAUAUGCACAGGUAGGUCGCCAUCUACGGC | 114 | 99 | 100 | 105 | 95.2
26 | UUAGAGAUCUCAGGAUAUCAGUGAUGUUGGUGUGAAGAUCUGAGAUAGAAUUCUAUCUCAGAUCAAUGAGAAGGGAGAUCUCAUU [AK3.1 Exc FMN B] | 385 | 162 | 209 | 181 | 168
27 | GCAAAACAAACGUAGAGUGGAACACAGAGACGAGGACCGGUACGGCCGCCACUCGACGAGGUUUUCAGUGAUGUUGAAAAUUUAG [Exclusion Tryptophan A GF2] | 133 | 162 | 125 | 151 | 199
28 | CCUAUCUCAUACGAUACCAGUCAAUAUAAACGAGUGAUGUUCGAAAUAAUAUGCCAUCACGACCCUUGGCAGCGUAUGGGAUAGG [Ex Theophylline B K4 6] | 158 | 88.8 | 141 | 214 | 126
29 | AGACUACCACACUGUCAAUAGACAGUGUACUAGGAUAUGCUGAUAAGCAGAAGGAGUGAUGUUCCCAGGUAGUCAAUAAAAUAAU [FmnAX 13 U28+C66] | 274 | 189 | 243 | 270 | 225
30 | UGACUGGAUUGAAGGAGCGCUAAACUCCUAGUGAUGUUAGGGACACAAGACAAAGUCUUGAGGCAGGUAGGUCGCAAUCUAGUCU [FiskerMod 5 - Jieux - Same State - Arginine B] | 345 | 253 | 288 | 310 | 265
31 | GGACGACAGGCGGCCGCCACUCAAAGCAGCCAGCGAGUGAUGUUCGUGGCGGAGUGAUGUUCCUAGAGGACCGGGUCUGCAGUUC [Same State Tryptophan B GF 18] | 449 | 390 | 468 | 490 | 362
32 | GUAUCGCUAGGAGGAUAUUUCAAAUCGCCAAUAAAUGGUGAUACGGAGUGAUGUUCCGAUUUACGGAAAGAAGGCCUAGUGAUAC [FMN B 6] | 135 | 269 | 322 | 288 | 268
33 | AUUAAUUUCAGAGGAUAUCGUGAUUUUGUUUAAUUUAUUCAUUUGUGCAGUGAUGUUGCUAAUAUUCGAGAAGGCUGAUUUAUAA [whbob_Ex_FMNB__2th225] | 161 | 134 | 63.3 | 132 | 53.3
34 | CGGCUCAAUCCUAGUAUUAAGAGGGAGUUGCGAGGACCGGUACGGCCGCCACUCGAAGUAGUUUGGCCAGUGAUGUUGGUCUUAC [Mabeleon] | 203 | 194 | 210 | 204 | 121
35 | GGGAGUGAUGUUCCCACGUUGUCGGUCCUUCGAGGACCGGUACGGCCGCCACUCGCGACCCAGUGAUGUUGGGAUUCACCGUACC [Exclusion Tryptophan A Gf 13] | 431 | 421 | 471 | 506 | 409
36 | UACAAACGUAGUGAUGUUACGUACUCUGAUACCAGACAAGUGUAAGUCCCUUGGCAGCAGUCAUUUUGCUUAUUAUUUUCUCAAA [JR_ExcTheophyA_Sub019] | 70.1 | 88.1 | 74.1 | 86.4 | 68.1
37 | ACCCUACUCGGGCGGCUAUACAGUUAAGCUAAGGAUAUGUAUUCGUACAGAAGGUAGAAGAAGCCGAGUGAUGUUCGACACGCCC [theeternabot_sameState_KL_FMN_A_24] | 557 | 386 | 544 | 293 | 413
38 | CGCAGUGAUGUUGCUAUUAUUCUUGAUUAACGAGGACCGGUACGGCCGCCACUCGAUUUCUAUCUUAUUUUGUGUUAUGUUGAUU [JR_ExcTryptoA_Sub008] | 306 | 359 | 333 | 417 | 225
39 | UAUCUUUGCUGAAGGAGCGAGCAUGUUGGAGUGAUGUUCCGUGCGAGUGAUGUUCGCAUAGCUCAGGUAGGUCGCAGUGGGAGGA [KL-SSArg B29] | 120 | 94.7 | 105 | 157 | 86.2
40 | AUGGGUUUGGGAGGAUAUCCUUCCCACGUCGAAGUACCGUGCUUGAUGGAGUGAUGUUCGAUCAGAGGAGAAGGCCCGGAUUUAU [Same State FMN B GF21] | 754 | 612 | 845 | 806 | 536
41 | AAUUUAUUAACUGAUACCAGACUUUAGCGCGUUUAUAAGUCAAGUGAUGUUUGACUAAUUGUCCCUUGGCAGCAGUAUUUAUUAA [JR_SSTheophyB_Sub021] | 233 | 210 | 216 | 157 | 197
42 | GAAGGAGACAACAUCACUACUCCUUCAGACUAGGAUAUCAGGAAACUGAGAAGGAGUCUACUUGCAGUGAUGUUGCAAGAAUAAU [[F]''-[K]'-[F]'-[F1]-[F2]-[K1]-[K2]_Design2] | 167 | 123 | 146 | 148 | 118
43 | GUAGGCUACCGAGGAUAUAGUCCAACGGAGUGAUGUUCCGUCUUUCUUCAUCAUUAACGUUGUGAUCUAGAAGGCGGUAGCCUAC | 120 | 440 | 723 | 529 | 687
